Sequences and labels used below:
B1: DNA ligase 1 (LIG1), in MEFs (enzyme, mouse (endogenous in MEFs), UniProt P37913 1-916, looked up)
chain: MQRSIMSFFQPTKEGKAKKPEKETPSSIREKEPPPKVALKERNQVVPESDSPVKRTGRKVAQVLSCEGEDEDEAPGTPKVQKPVSDSEQSSPPSPDTCPENSPVFNCSSPMDISPSGFPKRRTARKQLPKRTIQDTLEEQNEDKTKTAKKRKKEEETPKESLAEAEDIKQKEEKEGDQLIVPSEPTKSPESVTLTKTENIPVCKAGVKLKPQEEEQSKPPARGAKTLSSFFTPRKPAVKTEVKQEESGTLRKEETKGTLDPANYNPSKNNYHPIEDACWKHGQKVPFLAVARTFEKIEEVSARLKMVETLSNLLRSVVALSPPDLLPVLYLSLNRLGPPQQGLELGVGDGVLLKAVAQATGRQLESIRAEVAEKGDVGLVAENSRSTQRLMLPPPPLTISGVFTKFCDIARLTGSASMAKKMDIIKGLFVACRHSEARYIARSLSGRLRLGLAEQSVLAALAQAVSLTPPGQEFPTVVVDAGKGKTAEARKMWLEEQGMILKQTFCEVPDLDRIIPVLLEHGLERLPEHCKLSPGVPLKPMLAHPTRGVSEVLKRFEEVDFTCEYKYDGQRAQIHVLEGGEVKIFSRNQEDNTGKYPDIISRIPKIKHPSVTSFILDTEAVAWDREKKQIQPFQVLTTRKRKEVDASEIQVQVCLYAFDLIYLNGESLVRQPLSRRRQLLRENFVETEGEFVFTTSLDTKDTEQIAEFLEQSVKDSCEGLMVKTLDVDATYEIAKRSHNWLKLKKDYLDGVGDTLDLVVIGAYLGRGKRAGRYGGFLLAAYDEESEELQAICKLGTGFSDEELEEHHQSLQALVLPTPRPYVRIDGAVAPDHWLDPSIVWEVKCADLSLSPIYPAARGLVDKEKGISLRFPRFIRVRKDKQPEQATTSNQVASLYRKQSQIQNQQSSDLDSDVEDY
notes: DNA ligase 1, mouse, endogenous in MEFs; source: endogenous, mouse embryonic fibroblasts (fixed cells)
B2: POLD1 (the catalytic and PCNA-binding subunit of Polδ), in MEFs (enzyme, mouse (endogenous in MEFs), UniProt P52431 1-1105, looked up)
chain: MDCKRRQGPGPGVPPKRARGHLWDEDEPSPSQFEANLALLEEIEAENRLQEAEEELQLPPEGTVGGQFSTADIDPRWRRPTLRALDPSTEPLIFQQLEIDHYVGSAPPLPEGPLPSRNSVPILRAFGVTDEGFSVCCHIQGFAPYFYTPAPPGFGAEHLSELQQELNAAISRDQRGGKELSGPAVLAIELCSRESMFGYHGHGPSPFLRITLALPRLMAPARRLLEQGVRVPGLGTPSFAPYEANVDFEIRFMVDADIVGCNWLELPAGKYVRRAEKKATLCQLEVDVLWSDVISHPPEGQWQRIAPLRVLSFDIECAGRKGIFPEPERDPVIQICSLGLRWGEPEPFLRLALTLRPCAPILGAKVQSYEREEDLLQAWADFILAMDPDVITGYNIQNFDLPYLISRAQALKVDRFPFLGRVTGLRSNIRDSSFQSRQVGRRDSKVISMVGRVQMDMLQVLLREHKLRSYTLNAVSFHFLGEQKEDVQHSIITDLQNGNEQTRRRLAVYCLKDAFLPLRLLERLMVLVNNVEMARVTGVPLGYLLTRGQQVKVVSQLLRQAMRQGLLMPVVKTEGSEDYTGATVIEPLKGYYDVPIATLDFSSLYPSIMMAHNLCYTTLLRPGAAQKLGLKPDEFIKTPTGDEFVKSSVRKGLLPQILENLLSARKRAKAELAQETDPLRRQVLDGRQLALKVSANSVYGFTGAQVGKLPCLEISQSVTGFGRQMIEKTKQLVESKYTVENGYDANAKVVYGDTDSVMCRFGVSSVAEAMSLGREAANWVSSHFPSPIRLEFEKVYFPYLLISKKRYAGLLFSSRSDAHDKMDCKGLEAVRRDNCPLVANLVTSSLRRILVDRDPDGAVAHAKDVISDLLCNRIDISQLVITKELTRAAADYAGKQAHVELAERMRKRDPGSAPSLGDRVPYVIIGAAKGVAAYMKSEDPLFVLEHSLPIDTQYYLEQQLAKPLLRIFEPILGEGRAESVLLRGDHTRCKTVLTSKVGGLLAFTKRRNCCIGCRSVIDHQGAVCKFCQPRESELYQKEVSHLNALEERFSRLWTQCQRCQGSLHEDVICTSRDCPIFYMRKKVRKDLEDQERLLQRFGPPGPEAW
notes: POLD1, catalytic subunit of DNA polymerase delta, mouse, endogenous in MEFs; source: endogenous, mouse embryonic fibroblasts (fixed cells)

In assay [1] the target is DNA ligase 1 (LIG1), in MEFs (mouse (endogenous in MEFs)) (UniProt P37913). Briefly: proximity ligation; Duolink PLA on endogenous proteins in fixed WT MEFs; foci per nucleus.
For assay [2], the target named is proliferating cell nuclear antigen (PCNA), in MEFs (mouse (endogenous in MEFs)) (UniProt P17918). The assay is described as above.
Assay [3] shares this target. Put plainly: proximity ligation; Duolink PLA on endogenous proteins in fixed Jmjd1b-/- MEFs; foci per nucleus.
The target of assay [4] is DNA ligase 1 (LIG1), in MEFs (mouse (endogenous in MEFs)) (UniProt P37913). Briefly: FRET or BRET; FRET microscopy in fixed Jmjd1b-/- MEFs; Alexa Fluor 568 (donor) and Alexa Fluor 647 (acceptor) secondary antibodies; corrected FRET intensity at PCNA foci. In general terms: Bioluminescence resonance energy transfer reports proximity on the nanometre scale.
For assay [5] the target is unchanged. Put plainly: FRET or BRET; FRET microscopy in fixed WT MEFs; primary antibodies with Alexa Fluor 568 (donor) and Alexa Fluor 647 (acceptor) secondary antibodies; corrected FRET intensity at PCNA foci.
Assay [6] has the same target. Put plainly: proximity ligation; Duolink PLA on endogenous proteins in fixed FEN1 R192Q MEFs; foci per nucleus.
The target in assay [7] is proliferating cell nuclear antigen (PCNA), in MEFs (mouse (endogenous in MEFs)) (UniProt P17918). The assay is described as above.
The target of assay [8] is DNA ligase 1 (LIG1), in MEFs (mouse (endogenous in MEFs)) (UniProt P37913). Briefly: FRET or BRET; FRET microscopy in fixed FEN1 R192Q MEFs; Alexa Fluor 568 (donor) and Alexa Fluor 647 (acceptor) secondary antibodies; corrected FRET intensity at PCNA foci.
Assay [9] addresses T1, proliferating cell nuclear antigen (PCNA), in MEFs (mouse (endogenous in MEFs), UniProt P17918 1-261).
T1 construct: PCNA, mouse, endogenous in MEFs; source: endogenous, mouse embryonic fibroblasts (fixed cells)
Briefly: proximity ligation; Duolink PLA on endogenous proteins in fixed WT MEFs; foci per nucleus. Conditions: partners not purified.

Assay [10] has as its target Flap endonuclease 1 (FEN1), in MEFs (mouse (endogenous in MEFs)) (UniProt P39749). Described as above.
In assay [11] the target is B1. The assay is described as above. Conditions: partners not purified.
Assay [12] addresses Flap endonuclease 1 (FEN1), in MEFs (mouse (endogenous in MEFs)) (UniProt P39749). Briefly: FRET or BRET; FRET microscopy in fixed WT MEFs; primary antibodies with Alexa Fluor 568 (donor) and Alexa Fluor 647 (acceptor) secondary antibodies; corrected FRET intensity at PCNA foci.

proliferating cell nuclear antigen (PCNA), in MEFs (mouse (endogenous in MEFs)), sequence (P17918 whole entry): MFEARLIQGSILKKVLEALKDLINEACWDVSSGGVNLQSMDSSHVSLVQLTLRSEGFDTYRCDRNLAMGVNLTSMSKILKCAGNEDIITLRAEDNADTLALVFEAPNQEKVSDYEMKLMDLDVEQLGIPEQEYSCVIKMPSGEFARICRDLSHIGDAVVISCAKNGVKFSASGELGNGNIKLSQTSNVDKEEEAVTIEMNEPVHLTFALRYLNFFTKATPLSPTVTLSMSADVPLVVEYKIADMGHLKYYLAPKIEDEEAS
Flap endonuclease 1 (FEN1), in MEFs (mouse (endogenous in MEFs)), sequence (P39749 whole entry): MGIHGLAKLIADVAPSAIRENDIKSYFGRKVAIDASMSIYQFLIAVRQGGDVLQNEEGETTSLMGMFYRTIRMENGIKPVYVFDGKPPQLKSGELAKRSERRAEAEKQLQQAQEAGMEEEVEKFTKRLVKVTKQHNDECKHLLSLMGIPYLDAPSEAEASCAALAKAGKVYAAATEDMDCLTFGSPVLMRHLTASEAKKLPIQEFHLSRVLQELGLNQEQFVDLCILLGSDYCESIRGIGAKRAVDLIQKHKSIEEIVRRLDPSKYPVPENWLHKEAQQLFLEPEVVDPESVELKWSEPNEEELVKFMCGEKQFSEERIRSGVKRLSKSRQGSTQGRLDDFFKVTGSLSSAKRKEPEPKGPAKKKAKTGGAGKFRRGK
T1 sequence (P17918 whole entry): as the sequence (P17918 whole entry) above

Consider “Flap endonuclease 1 (FEN1), in MEFs (from UniProt P39749 1-378) (enzyme)”, for which, in [1], the PLA foci per MEF (PLA foci per MEF) is 20 and the PLA foci per nucleus was 18.8 foci/nucleus. Moreover, in [2], the PLA foci per MEF (PLA foci per MEF) came out at 40 and the PLA foci per nucleus stood at 70.3 foci/nucleus. In [3], the PLA foci per nucleus was found to be 76.2 foci/nucleus. In assay [4], the FEN1-LIG1 FRET signal at PCNA foci, early middle S phase was 4.8 and the FEN1-LIG1 FRET signal at PCNA foci, late S phase worked out at 7.4. Besides, in [5], the FEN1-LIG1 FRET level at PCNA foci, throughout S phase came to 5.8; the FEN1-LIG1 FRET signal at PCNA foci, early middle S phase came out at 5.6; the FEN1-LIG1 FRET signal at PCNA foci, late S phase turned out to be 6.3; the FRET signal (corrected FRET intensity at PCNA foci) was found to be 18.6.
With “FEN1 R192Q, in FEN1 R192Q MEFs (from UniProt P39749 1-378) (enzyme)”, the PLA foci per nucleus in assay [6] was 9.8 foci/nucleus; in assay [7], 31.7 foci/nucleus. This molecule also yielded an FEN1-LIG1 FRET level at PCNA foci, throughout S phase in [8] of 2.
As to B1, the “PLA foci per MEF” value in assay [9] is roughly 40 PLA foci per MEF.
The molecule B2 returned a PLA foci per MEF (PLA foci per MEF) in [10] of 20. Further, the “PLA foci per MEF” value in [9] was roughly 40 PLA foci per MEF; in assay [11], less than 5 PLA foci per MEF. For the same molecule, the FRET signal (corrected FRET intensity at PCNA foci) in assay [12] was found to be 20.1.

The record behind these values is doi:10.1101/2025.10.06.680735, “JMJD1B-mediated FEN1 demethylation allows timely switching of Okazaki fragment maturation core enzymes to avoid mutagenic flap ligation by PARP1-LIG3” (bioRxiv, 2025).
